In patent publication US5633451:

Molecular target: Dendroides canadensis thermal hysteresis proteins (purified THPs)

| Thermal Hysteresis (°C.) of a 4 mg/ml THP solution [°C.] | Substance |
| --- | --- |
| 3.13 | Gelatin |
| 3.98 | Tipula ice-nucleator protein PIN |
| 3.49 | Tipula lipoprotein ice-nucleator (LPIN) |
